Changes are numbered by the printed parent chain. Where only a bound is given, the exact number is not on record here.

Experiment [1] has as its target T1, cynomolgus BDCA2 (cynomolgus monkey, UniProt A0A2K5UWP4 1-212).
T1 construct: whole, on cells; also called Cyno BDCA2; cynoBDCA2
T1 sequence: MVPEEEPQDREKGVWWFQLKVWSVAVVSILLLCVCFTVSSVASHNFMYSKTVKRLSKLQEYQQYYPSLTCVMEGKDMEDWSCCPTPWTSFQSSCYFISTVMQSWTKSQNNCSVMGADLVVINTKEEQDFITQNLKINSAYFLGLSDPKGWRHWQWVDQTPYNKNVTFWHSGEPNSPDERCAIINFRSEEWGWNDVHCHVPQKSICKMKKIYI
Put plainly: FACS, 293F-cynoBDCA2 cells. (In general: Flow cytometry measures light scatter and fluorescence of single cells or particles in a stream.)

The target of experiment [2] is T2, human BDCA2 (human, UniProt Q8WTT0 1-213).
T2 construct: whole, on cells; also called hBDCA2; Blood dendritic cell antigen 2
T2 sequence (looked up): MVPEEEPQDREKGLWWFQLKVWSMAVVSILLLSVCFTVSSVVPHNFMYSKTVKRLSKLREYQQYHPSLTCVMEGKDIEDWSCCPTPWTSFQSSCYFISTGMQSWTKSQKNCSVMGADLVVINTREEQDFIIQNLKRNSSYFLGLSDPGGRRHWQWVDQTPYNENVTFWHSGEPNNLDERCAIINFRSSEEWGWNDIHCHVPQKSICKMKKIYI
The experiment in a line: FACS, CHOK1-humanBDCA2 cells. How it is done: The cells were recovered and resuspended to 2×10⁶/mL with FACS buffer (PBS+2% FBS). The resuspended cells were added to 3799 cell plates at 100 μL/well, and the supernatant was discarded after centrifugation at 300 g. […] The cells were incubated at 4° C. for 1 h. The incubated cells were centrifuged at […] for 5 min and washed twice with FACS buffer. 100 μL Goat anti-Human IgG (H+L) Cross-Adsorbed Secondary Antibody, Alexa Fluor 488 (Sigma, A11013; 1:1000) secondary antibody was added, washed twice with FACS buffer after incubation at 4° C. for 1 h. The cells were resuspended with PBS, then the fluorescence signal of antibodies bound to cell surface was analyzed with FACS (BD FACS CantoTM II) instrument and curves were fitted with GraphPad Prism6 to calculate EC₅₀ values for antibodies binding to BDCA2 antigen.

The target of experiment [3] is T1, cynomolgus BDCA2. Put plainly: FACS on 293F-cynoBDCA2 cells; EC50 table under the plot, unit from the x axis (nM) [continued) d.]. How it is done:
(§1) The cells were recovered and resuspended to 2×10⁶/mL with FACS buffer (PBS+2% FBS). The cells were added to 3799 cell plates (Corning) at 100 μL/well, and the supernatant was discarded after centrifugation at 300 g. The antibodies were serially diluted with FACS buffer (Id.), the diluted antibodies were added to centrifuged cells and the cells were resuspended. The cells were incubated at 4° C. for 1 h. The incubated cells were then centrifuged at […] for 5 min and washed twice with FACS buffer. 100 μL Donkey anti-Mouse IgG (H+L) Highly Cross-Adsorbed Secondary Antibody-Alexa Fluor 488 (Invitrogen, A21202; 1:1000) secondary antibody was added to the cells, which were washed twice with FACS buffer after incubation at 4° C. for 1 h, resuspended with PBS, analyzed with FACS (BD FACS CantoTM II) instrument. The curve was fitted with GraphPad Prism6, and EC₅₀ values were calculated.

The target of experiment [4] is T3, Human BDCA2 Fc recombinant protein (human).
T3 construct: Human IgG1 Fc N-terminal of the BDCA2 extracellular domain (Asn45-Ile213), fused by a linker; also called BDCA2-Fc protein
Put plainly: ELISA, coated humanBDCA2 Fc. The method, then:
HumanBDCA2 Fc protein or cynoBDCA2 His protein was diluted with PBS to 1 μg/mL and added to ELISA microplates at 100 μL/well and incubated at 4° C. overnight. The plates were blocked with ELISA blocking solution (PBS phosphate buffer with 1% BSA, pH 7.4, the percentages representing mass percentages) at 37° C. for 2 hours. Sequential 10-fold serial dilutions of antibodies were added at 8 concentrations (0.0001 nM-100 nM, including 0 point control) in total at 100 μL/well. The plates were incubated at 37° C. for 1 hour, then washed 3 times and after anti-mouse IgG (Fab specific)-HRP (Sigma, A3682; 1: 5000 dilution) secondary antibodies were added at 100 μL/well, were incubated at 37° C. for 1 h. The plates were washed 3 times, TMB development fluid (EL0009, Huzhou Ying Chuang Biotechnology) was added at 100 μL/well and 50 μL 1N hydrochloric acid was added after incubation at 37° C. for 10 min to stop the development reaction. OD450 nm values were read with ELISA plate reader and the curve was fitted with GraphPad Prism6, and EC₅₀ values were calculated.

Experiment [5] has as its target T2, human BDCA2. The experiment in a line: FACS on CHOK1-hBDCA2 cells; EC50 table under the plot, unit from the x axis (nM) [continued) d.]. How it is done: as §1
The target in experiment [6] is T2, human BDCA2. Put plainly: FACS on CHOK1-hBDCA2 cells; EC50 table under the plot, unit from the x axis (nM). The method, then: The cells were recovered and resuspended to 2×10⁶/mL with FACS buffer (PBS+2% FBS). The cells were added to 3799 cell plates (Corning) at 100 μL/well, and the supernatant was discarded after centrifugation at 300 g. The antibodies were serially diluted with FACS buffer (Id.), the diluted antibodies were added to centrifuged cells and the cells were resuspended. The cells were incubated at 4° C. for 1 h. The incubated cells were centrifuged at 300 g for 5 min and washed twice with FACS buffer. 100 μL […] anti-Human IgG (H+L) Cross-Adsorbed Secondary Antibody-Alexa Fluor 488 (Sigma, A11013; 1:1000) secondary antibody was added, washed twice with FACS buffer after incubation at 4° C. for 1 h, resuspended with PBS, analyzed with FACS (BD FACS CantoTM II) instrument and curve fitted with GraphPad Prism6, and EC₅₀ values were calculated.

The target of experiment [7] is T2, human BDCA2. The experiment in a line: cell-based or functional assay.
The target in experiment [8] is T1, cynomolgus BDCA2. The experiment in a line: FACS on 293F-cynoBDCA2 cells; EC50 table under the plot, unit from the x axis (nM). The method, then:
as §1

Experiment [9] deals with T2, human BDCA2. The experiment in a line: FACS on CHOK1-hBDCA2 cells; EC50 table under the plot, unit from the x axis (nM). How it is done:
as §1
The source holds these as a separate data set.

B1: Hu005-07 (antibody, IgG1, V domains shown)
VH: QVQLQESGPGLVKPSETLSLTCTVSGGSITNYGVHWIRQPPGKGLEWIGVIWSGESTDYDAAFISRVTISKDNSKNQVSLKLSSVTAADTAVYYCARRRSHYYGYVMDYWGQGTTVTVSS
VL: DIVLTQSPASLAVSPGQRATITCKASQSIDYDAIGYLNWYQHKPGQPPKLLIYAASNLESGVPARFSGSGSGTDFTLTINPVEANDTANYYCQQSNEDPPTFGQGTKLEIK
notes: Humanized IgG1; also called hu005-07(BM5)
By EC50 is commonly meant the midpoint of the concentration-response curve. In the case of B1, the binding result with cynomolgus BDCA2 [1] is on record as “binds”. This molecule also displayed an EC50 in the experiment with human BDCA2 [2] of 2 nM.

B2: Hu005-04 (antibody, human IgG1, kappa, V domains shown)
VH: B1 VH with E6Q, I29L
VL: DIVLTQSPASLAVSPGQRATITCKASQSIDYDAIGYLNWYQQKPGQPPKLLIYAASNLESGVPARFSGSGSGTDFTLTINPVEANDTANYYCQQSNEDPPTFGQGTKLEIKR
notes: Humanized IgG1; also called hu005-04(BM6)
B2: in the experiment with cynomolgus BDCA2 [1], the binding result was “binds”. This molecule also registered an EC50 with human BDCA2 [2] of 2.3 nM.

B3: Hu005-24 (antibody, IgG1, V domains shown)
VH: B1 VH with E6Q, I29L
VL: DIQMTQSPSSLSASVGDRVTITCKASQSIDYDAIGYLNWYQQKPGKAPKLLIYAASNLESGVPSRFSGSGSGTDFTLTISSLQPEDFATYYCQQSNEDPPTFGQGTKLEIK
notes: Humanized IgG1; also called hu005-24(BM6)
On to B3, for which the binding result in the experiment with cynomolgus BDCA2 [1] is listed as “binds”. This molecule also returned an EC50 in the experiment with human BDCA2 [2] of 1.9 nM.

B4: Hu005-03 (antibody, IgG1, V domains shown)
VH: B1 VH
VL: B1 VL with H42Q
notes: Humanized IgG1; also called hu005-03(BM4)
As for B4, in the experiment with cynomolgus BDCA2 [1], the binding result is reported as “binds”. The molecule further returned an EC50 with human BDCA2 [2] of 2.1 nM.

B5: Hu005-08 (antibody, IgG1, V domains shown)
VH: B1 VH with E6Q, I29L
VL: B1 VL
notes: Humanized IgG1; also called hu005-08(BM7)
Take B5: the binding result in the experiment with cynomolgus BDCA2 [1] is recorded as “binds”. In addition, in the experiment with human BDCA2 [2], the EC50 turned out to be 2.3 nM.

B6: mAb026 (antibody, V domains shown)
VH: DVQLQESGPGLVKPSQSLSLTCSVTGYSITSAYYWNWIRQFPGHKLEWMGYISYDGSNNYNPSLKNRISITRDTSKNQFFLKLNSVTTEDTATYHCARGVDYPNAIDWWGQGTSLTVSS
VL: DIVLTQSPTSLTVSLGQRATISCRASESVSIHGTHLMHWYQQKPGQPPKLLIYVASYLESGVPARFSGSGSETDFSLNIHPVEEEDAATYFCQQSFEDPWTFGGGTKLEIK
notes: Mouse hybridoma antibody
For B6, the EC50 with cynomolgus BDCA2 [3] is 2.49 nM; in [4] it was less than 0.3 nM; with human BDCA2 [5], 0.773 nM.

B7: mAb028 (antibody, V domains shown)
VH: DVQLQESGPGLVKPSQSLSLTCSVTGYSISSGYYWNWIRQFPGNKLECMGYISYDGSNYYNPSLKNRISITRDTSKNQFFLSLNSVTTEDTATYFCVRGGDYDDGGFAYWGQGTLVTVSA
VL: DIQMTQSPASLSASVGETVTITCRASGNIHNYLAWYQQKQGKSPQLLVYNAKTLADGVPSRFSGSGSETQYSLKINSLQPEDFGNYFCQHFWIIPYTFGGGTKLEIK
notes: Mouse hybridoma antibody
As to B7, the EC50 is 0.28 nM with cynomolgus BDCA2 [3], less than 0.3 nM in experiment [4] and 0.251 nM in the experiment with human BDCA2 [5].

B8: mAb032 (antibody, V domains shown)
VH: B7 VH with S30T
VL: B7 VL
notes: Mouse hybridoma antibody
On to B8, for which the EC50 with cynomolgus BDCA2 [3] was 0.359 nM; in experiment [4] it was less than 0.3 nM; in the experiment with human BDCA2 [5], 0.225 nM.

B9: mab016c (antibody, V domains shown)
VH: QVQLKQSGPGLVQPSQSLSITCTVSGFSLTSYGVHWVRQSPGKGLEWLGVIWSGESTDYDAAFISRLSISKDNSKSQVFFRMNSLQADDSAIYYCARRRSHYYGYVMDYWGQGTSVTVSS
VL: DIVLTQSPASLAVSLGQRATISCKASQSVDYDGVGYLNWYQHKPGQPPKLLIYAASNLESGIPARFSGSGSGTDFTLNIHPVEEEDAATYYCQQSNEDPPTFGSGTKLEIK
In the experiment with human BDCA2 [6], B9 gave an EC50 of 0.977 nM.

B10: mab005c (antibody, V domains shown)
VH: B9 VH with S31N, R81K
VL: B9 VL with V29I, V34I
B10: the “IC50, inhibition of IFNα secretion, CpG-A stimulated human PBMC” value in the experiment with human BDCA2 [7] stood at 0.00836 nM. Besides, the results for the EC50 with human BDCA2 [6] and in the experiment with human BDCA2 [2] were 0.964 nM and 2.2 nM, respectively.

B11: mAb001 (antibody, V domains shown)
VH: QIQLVQSGPELKKPGETVKISCKASGYTFTDFSMHWVKQAPGKGLKWMGWINTETGEPTYADDFKGRFAFSLETSASTAFLQINNLKNDDTTTYFCSRGGDGHPYWYFAVWGAGTTVTVSS
VL: DIVLTQSPASLAVSLGQRATISCRASQSVSTSSYSYMHWYQQKPGQPPKLLIKYASILESGVPARFSGSGSGTDFTLNIHPVEEEDTATYYCQHSWEIPFTFGSGTKLEIK
notes: Mouse hybridoma antibody
Regarding B11, the EC50 came out at 6.08 nM with cynomolgus BDCA2 [8] and 1.37 nM with human BDCA2 [9].

B12: mab002c (antibody, V domains shown)
VH: QIQLVQSGPELKKPGETVKISCRASGYSFTDYSMHWVKQAPGKGLKWVGWINTETGEPTYADDFKGRFALSLETSATSAYLQINNLKNEDTATYFCARGGDGFPYWYFNVWGAGTTVTVSS
VL: B11 VL with A9T, A19T, T20N, Y34N, M37I, I57N, E59D, A88S
In the experiment with human BDCA2 [6], B12 displayed an EC50 of 1.61 nM.

Source of the values: patent US20250346673A1 (DUALITY BIOLOGICS SUZHOU, published 2025).
